# Target: monoclonal anti-H2a antibody of hybridoma clone B9 (ECACC 04030801)
# Assay: competitive ELISA, antibody preincubated overnight with free specific peptide, then plate-bound peptide
binder,measurement,value
"CEKRRNATGEVA [H2 carboxyterminal peptide (SEQ ID NO:1, …)]",% inhibition of the reaction,81%
